The test has as its target T1, hPD-1 mIg fusion protein (human; mouse, UniProt Q15116 25-170).
T1 construct: extracellular domain; not shown: CH2-CH3 domain of mouse IgG2a heavy chain (plasmid pmIgG)
The experiment in a line: SPR Biacore T100, hPD-1mIg immobilised by amine coupling, antibody as analyte. As to the method: Binding affinity and kinetics determination of the humanized antibodies: The binding affinity and kinetics of the humanized PD-1 mAbs interact with hPD-1 protein was assessed with Biacore T100 (GE Healthcare Life Sciences). […] Nine different concentrations were tested for each sample. Detailed binding kinetic parameters (association rate, Ka, dissociation rate, Kd, and affinity constant, KD) can be determined by full kinetic analysis.
Background: SPR reads the build-up and loss of mass on a sensor chip optically.

T1 sequence (Q15116 25-170): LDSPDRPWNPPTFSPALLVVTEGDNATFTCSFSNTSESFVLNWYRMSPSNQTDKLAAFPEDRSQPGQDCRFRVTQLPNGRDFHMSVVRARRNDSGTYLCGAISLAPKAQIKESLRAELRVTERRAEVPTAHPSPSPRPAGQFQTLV

B1: Variant 2 (antibody, V domains shown)
VH: EVQLVESGGGLVQPGGSLRLSCAASGFTFSSYTMSWVRQAPGKGLEWVSYISHGGGDTYYADSVKGRFTISRDNSKNTLYLQMNSLRAEDTAVYYCARHSGYERGYYYVMDYWGQGTLVTVSS
VL: DIVMTQSPDSLAVSLGERATINCKASESVDYYGFSFLNWFQQKPGQPPKLLIYAASNRESGVPDRFSGSGSGTDFTLTISSLQAEDVAVYYCQQSKEVPWTFGQGTKLEIKR
notes: Humanized; VH variant a, VK variant b; Constant regions not spelled out; chimeric parent has human IgG4-S228P and human kappa; also called mutant combination 2
The term Kd denotes the concentration at which binding is half-saturated. Read a high Kd as weaker binding. Broadly, the koff is the rate constant with which the complex falls apart. The kon is the rate constant with which the complex forms. A higher kon goes with fast association. Consider B1, for which the dissociation constant Kd amounted to 0.363 nM, the off-rate constant (koff) stood at 7.64e-05 s⁻¹ and the kon turned out to be 210000 M⁻¹ s⁻¹.

B2: Variant 5 (antibody, V domains shown)
VH: EVQLVESGGGLVQPGGSLRLSCAASGFTFSSYTMSWVRQAPGKGLEWVSYISHGGGDTYYPDSVKGRFTISRDNSKNTLYLQMNSLRAEDTAVYYCARHSGYERGYYYVMDYWGQGTLVTVSS
VL: DIVMTQSPDSLAVSLGERATINCKASESVDYYGFSFLNWFQQKPGQPPKLLIYAASNRESGVPDRFSGSGSGTDFTLTISSLQAEDVAVYYCQQSKEVPWTFGQGTKLEIKR
notes: Humanized; VH variant b, VK variant b; Constant regions not spelled out; chimeric parent has human IgG4-S228P and human kappa; also called mutant combination 5
B2 showed a dissociation constant (Kd) of 0.329 nM, a koff of 6.94e-05 s⁻¹ and an on-rate constant (kon) of 211000 M⁻¹ s⁻¹.

B3: Variant 8 (antibody, V domains shown)
VH: EVKLLESGGGLVQPGGSLRLSCAASGFTFSSYTMSWVRQAPGKGLEWVSYISHGGGDTYYPDSVKGRFTISRDNSKNTLYLQMNSLRAEDTAVYYCARHSGYERGYYYVMDYWGKGTTVTVSS
VL: DIVMTQSPDSLAVSLGERATINCKASESVDYYGFSFLNWFQQKPGQPPKLLIYAASNRESGVPDRFSGSGSGTDFTLTISSLQAEDVAVYYCQQSKEVPWTFGQGTKLEIK
notes: Humanized; VH variant c, VK variant b; Constant regions not spelled out; also called mutant combination 8
On to B3, for which the equilibrium dissociation constant (Kd) came to 0.358 nM, the dissociation rate constant (koff) is 7.95e-05 s⁻¹ and the kon came out at 222000 M⁻¹ s⁻¹.

B4: Variant 9 (antibody, V domains shown)
VH: EVKLLESGGGLVQPGGSLRLSCAASGFTFSSYTMSWVRQAPGKGLEWVSYISHGGGDTYYPDSVKGRFTISRDNSKNTLYLQMNSLRAEDTAVYYCARHSGYERGYYYVMDYWGKGTTVTVSS
VL: DIQLTQSPDSLSVSLGERATINCKASESVDYYGFSFLNWFQQKPGQPPKLLIYAASNRQSGVPDRFSGSGSGTDFTLTISSLQAEDVAVYFCQQSKEVPWTFGQGTKLEIK
notes: Humanized; VH variant c, VK variant c; Constant regions not spelled out; also called mutant combination 9
B4 had a Kd of 0.123 nM, an off-rate (koff) of 3.2e-05 s⁻¹ and an association rate constant (kon) of 259000 M⁻¹ s⁻¹.

B5: Variant 6 (antibody, V domains shown)
VH: EVQLVESGGGLVQPGGSLRLSCAASGFTFSSYTMSWVRQAPGKGLEWVSYISHGGGDTYYPDSVKGRFTISRDNSKNTLYLQMNSLRAEDTAVYYCARHSGYERGYYYVMDYWGQGTLVTVSS
VL: DIQLTQSPDSLSVSLGERATINCKASESVDYYGFSFLNWFQQKPGQPPKLLIYAASNRQSGVPDRFSGSGSGTDFTLTISSLQAEDVAVYFCQQSKEVPWTFGQGTKLEIKR
notes: Humanized; VH variant b, VK variant c; Constant regions not spelled out; chimeric parent has human IgG4-S228P and human kappa; also called mutant combination 6
In the case of B5, the Kd worked out at 0.0898 nM, the koff amounted to 2.23e-05 s⁻¹ and the on-rate (kon) is 248000 M⁻¹ s⁻¹.

B6: Variant 4 (antibody, V domains shown)
VH: EVQLVESGGGLVQPGGSLRLSCAASGFTFSSYTMSWVRQAPGKGLEWVSYISHGGGDTYYPDSVKGRFTISRDNSKNTLYLQMNSLRAEDTAVYYCARHSGYERGYYYVMDYWGQGTLVTVSS
VL: DIVMTQSPDSLAVSLGERATINCKSSESVDYYGFSFLNWFQQKPGQPPKLLIYAASNRESGVPDRFSGSGSGTDFTLTISSLQAEDVAVYYCQQSKEVPWTFGQGTKLEIKR
notes: Humanized; VH variant b, VK variant a; Constant regions not spelled out; chimeric parent has human IgG4-S228P and human kappa; also called mutant combination 4
B6 had a Kd of 0.338 nM, a koff of 6.29e-05 s⁻¹ and a kon of approximately 186000 M⁻¹ s⁻¹.

B7: Variant 1 (antibody, V domains shown)
VH: EVQLVESGGGLVQPGGSLRLSCAASGFTFSSYTMSWVRQAPGKGLEWVSYISHGGGDTYYADSVKGRFTISRDNSKNTLYLQMNSLRAEDTAVYYCARHSGYERGYYYVMDYWGQGTLVTVSS
VL: DIVMTQSPDSLAVSLGERATINCKSSESVDYYGFSFLNWFQQKPGQPPKLLIYAASNRESGVPDRFSGSGSGTDFTLTISSLQAEDVAVYYCQQSKEVPWTFGQGTKLEIKR
notes: Humanized; Constant regions not spelled out for the humanized antibodies; the chimeric parent has human IgG4-S228P and human kappa; also called mutant combination 1
Molecule B7 came in with a dissociation constant Kd of 0.293 nM, a koff of 6.15e-05 s⁻¹ and an on-rate constant (kon) of 210000 M⁻¹ s⁻¹.

B8: Variant 7 (antibody, V domains shown)
VH: EVKLLESGGGLVQPGGSLRLSCAASGFTFSSYTMSWVRQAPGKGLEWVSYISHGGGDTYYPDSVKGRFTISRDNSKNTLYLQMNSLRAEDTAVYYCARHSGYERGYYYVMDYWGKGTTVTVSS
VL: DIVMTQSPDSLAVSLGERATINCKSSESVDYYGFSFLNWFQQKPGQPPKLLIYAASNRESGVPDRFSGSGSGTDFTLTISSLQAEDVAVYYCQQSKEVPWTFGQGTKLEIK
notes: Humanized; VH variant c, VK variant a; Constant regions not spelled out; also called mutant combination 7
In the case of B8, binding was characterised by a dissociation constant (Kd) of 0.291 nM, the off-rate constant (koff) was 6.48e-05 s⁻¹ and the kon stood at 218000 M⁻¹ s⁻¹.

B9: chimeric parental antibody (antibody, human IgG4 S228P, kappa, V domains shown)
VH: EVKLVESGGGLVQPGGSLKLSCAASGFTFSSYTMSWIRQTPEKRLEWVAYISHGGGDTYYPDTVKGRFTISRDNAKNTLYLQMSSLKSEDTAMYYCARHSGYERGYYYVMDYWGQGTSVTVSS
VL: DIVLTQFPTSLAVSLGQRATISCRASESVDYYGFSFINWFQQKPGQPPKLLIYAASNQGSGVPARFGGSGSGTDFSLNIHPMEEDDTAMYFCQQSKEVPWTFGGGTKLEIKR
notes: also called chimeric antibody
The molecule B9 came in with a dissociation constant (Kd) of 0.0989 nM, a koff of 2.85e-05 s⁻¹ and a kon of 288000 M⁻¹ s⁻¹.

The values above are taken from US20210261665A1 (TAYU HUAXIA BIOTECH MEDICAL GROUP, published 2021).
